Tests used:
[1] = molecular target: Sox2 DBD labelled at 37 and 120 (UniProt P48431 37-120, S37C;M120C); test: smFRET titration; 200 mM salt; labelled protein; smFRET: 165 mM KCl or 200 mM salt (Supplementary Table 4), buffer details not in material; NMR: 20 mM NaH2PO4, 50 mM NaCl, 5 mM DTT, pH 5.5, 15 C; details: protein: recombinant; tags: His6-SUMO removed by ULP1; blunt
[2] = molecular target: Sox2 full-length labelled in the C-IDR (UniProt P48431 1-317, M120C;S315C); test: smFRET (C-IDR expands, E 0.43 to 0.28); smFRET: 165 mM KCl or 200 mM salt (Supplementary Table 4), buffer details not in material; NMR: 20 mM NaH2PO4, 50 mM NaCl, 5 mM DTT, pH 5.5, 15 C; details: protein: recombinant; tags: His6-SUMO removed by ULP1; blunt
[3] = molecular target: T1, Sox2 full-length, unlabelled (UniProt P48431 1-317); test: NMR (1H15N HSQC CSP); 30 uM Sox2, 1.1-fold DNA, 50 mM NaCl, pH 5.5, 15 C; smFRET: 165 mM KCl or 200 mM salt (Supplementary Table 4), buffer details not in material; NMR: 20 mM NaH2PO4, 50 mM NaCl, 5 mM DTT, pH 5.5, 15 C; details: protein: recombinant; tags: His6-SUMO removed by ULP1; blunt
[4] = molecular target: T2, Sox2 DBD, isolated, unlabelled (UniProt P48431 37-120); test: smFRET titration; 200 mM salt; smFRET: 165 mM KCl or 200 mM salt (Supplementary Table 4), buffer details not in material; NMR: 20 mM NaH2PO4, 50 mM NaCl, 5 mM DTT, pH 5.5, 15 C; details: protein: recombinant; tags: His6-SUMO removed by ULP1; label: Cy3B and CF660R, one on each 5' end; blunt
[5] = molecular target: T1, Sox2 full-length, unlabelled; test: as above; details: protein: recombinant; tags: His6-SUMO removed by ULP1; label: Cy3B and CF660R, one on each 5' end; blunt
[6] = molecular target: T2, Sox2 DBD, isolated, unlabelled; test: smFRET titration; 200 mM salt (table; text gives 165 mM KCl); smFRET: 165 mM KCl or 200 mM salt (Supplementary Table 4), buffer details not in material; NMR: 20 mM NaH2PO4, 50 mM NaCl, 5 mM DTT, pH 5.5, 15 C; details: protein: recombinant; tags: His6-SUMO removed by ULP1; label: Cy3B and CF660R, one on each 5' end; blunt
[7] = molecular target: T1, Sox2 full-length, unlabelled; test: as above; details: protein: recombinant; tags: His6-SUMO removed by ULP1; label: Cy3B and CF660R, one on each 5' end; blunt

T1 sequence (P48431 whole entry): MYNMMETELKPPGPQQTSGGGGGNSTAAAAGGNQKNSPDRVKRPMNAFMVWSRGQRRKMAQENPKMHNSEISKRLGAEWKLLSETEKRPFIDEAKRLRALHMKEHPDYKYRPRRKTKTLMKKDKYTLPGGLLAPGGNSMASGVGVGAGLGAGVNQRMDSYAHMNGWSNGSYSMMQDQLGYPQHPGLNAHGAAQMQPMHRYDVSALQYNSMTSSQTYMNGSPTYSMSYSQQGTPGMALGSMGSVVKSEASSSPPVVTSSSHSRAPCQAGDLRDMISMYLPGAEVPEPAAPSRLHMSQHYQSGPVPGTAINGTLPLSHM
T2 sequence (P48431 37-120): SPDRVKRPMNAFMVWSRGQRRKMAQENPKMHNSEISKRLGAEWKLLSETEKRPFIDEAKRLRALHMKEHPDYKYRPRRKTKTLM
Sox2 DBD labelled at 37 and 120, sequence (P48431 37-120 S37C/M120C): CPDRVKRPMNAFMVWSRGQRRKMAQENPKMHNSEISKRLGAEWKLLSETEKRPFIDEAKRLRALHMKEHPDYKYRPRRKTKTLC
Sox2 full-length labelled in the C-IDR, sequence (P48431 whole entry M120C/S315C): as the sequence (P48431 whole entry) above, with M120C, S315C counted along it

B1: 30 bp specific DNA (dsDNA)
DNA 1: ATCCCATTAGCATCCAAACAAAGAGTTTTC
DNA 2: GAAAACTCTTTGTTTGGATGCTAATGGGAT
Kd [1]: 300 ± 200 pM

B2: 15 bp specific DNA, unlabelled (dsDNA)
DNA 1: ACTCTTTGTTTGGAT
DNA 2: ATCCAAACAAAGAGT
binding result [2]: binds | binding result [3]: binds

B3: 15 bp nonspecific DNA, labelled (dsDNA)
DNA 1: TCTATCTGTGTATGT
DNA 2: ACATACACAGATAGA
modifications: 5' C6-amino linker on both strands
Kd [4]: 11000 ± 4000 pM | Kd [5]: 6000 ± 2000 pM

B4: 15 bp specific DNA, labelled (dsDNA)
DNA 1: ACTCTTTGTTTGGAT
DNA 2: ATCCAAACAAAGAGT
modifications: 5' C6-amino linker on both strands
Kd [6]: 300 ± 100 pM | Kd [7]: 400 ± 200 pM
